From the supplement of paper PMC9112550, “Optimization of the antimicrobial peptide Bac7 by deep mutational scanning” (BMC Biology, 2022)

Test system: Escherichia coli TOP10
Test: shrunken log2 fold change of peptide-encoding DNA abundance (4.5 h post-induction vs induction); higher = less antimicrobial activity (less host growth inhibition)
Details: time post-induction: 4.5 h; library: site-saturation at positions 5, 18, 19, 20
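Also: peptides expressed intracellularly from a pBAD plasmid library in pooled LB shake-flask culture, induced with 0.3% L-arabinose, DNA abundance read by NGS, three biological replicates, DESeq2 with apeglm shrinkage.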

| Sequence | shrunken log2 fold change |
| --- | --- |
| RRIRQRPPRLPRPRPRPPSRPRP | 0.138 |
| RRIRLRPPRLPRPRPRPEDNPRP | 0.0216 |
| RRIRHRPPRLPRPRPRPNFAPRP | 0.303 |
| RRIRYRPPRLPRPRPRPECLPRP | -0.171 |
| RRIRHRPPRLPRPRPRPYFKPRP | -1.03 |
| RRIRHRPPRLPRPRPRPERFPRP | -0.0122 |
| RRIRERPPRLPRPRPRPWKHPRP | -0.176 |
| RRIRYRPPRLPRPRPRPLLNPRP | -0.19 |
| RRIRTRPPRLPRPRPRPCARPRP | -0.187 |
| RRIRYRPPRLPRPRPRPAAQPRP | 0.466 |
| RRIRFRPPRLPRPRPRPMYPPRP | -0.249 |
| RRIRARPPRLPRPRPRPGNNPRP | -0.0708 |
| RRIRKRPPRLPRPRPRPVRMPRP | 0.0401 |
| RRIRCRPPRLPRPRPRPWRAPRP | 0.0569 |
| RRIRIRPPRLPRPRPRPGMNPRP | -0.0956 |
| RRIRHRPPRLPRPRPRPKKWPRP | -0.0201 |
| RRIRFRPPRLPRPRPRPFYLPRP | -0.787 |
| RRIRKRPPRLPRPRPRPFSPPRP | -0.102 |
| RRIRKRPPRLPRPRPRPAQFPRP | 0.258 |
| RRIRNRPPRLPRPRPRPYNRPRP | 0.00748 |
| RRIRDRPPRLPRPRPRPQDKPRP | -0.592 |
| RRIRSRPPRLPRPRPRPPHGPRP | 0.1 |

| Sequence | shrunken log2 fold change |
| --- | --- |
| RRIRARPPRLPRPRPRPLPVPRP | 0.174 |
| RRIRMRPPRLPRPRPRPGKDPRP | 0.0653 |
| RRIRMRPPRLPRPRPRPSPDPRP | 1.19 |
| RRIRERPPRLPRPRPRPAKGPRP | -0.321 |
| RRIRYRPPRLPRPRPRPRDYPRP | -1.39 |
| RRIRSRPPRLPRPRPRPGDWPRP | 0.223 |
| RRIRNRPPRLPRPRPRPRSAPRP | 0.0888 |
| RRIRYRPPRLPRPRPRPWSEPRP | -0.117 |
| RRIRYRPPRLPRPRPRPKKAPRP | -0.0344 |
| RRIRLRPPRLPRPRPRPNQRPRP | 0.00956 |
| RRIRVRPPRLPRPRPRPQCSPRP | -0.18 |
| RRIRYRPPRLPRPRPRPQFFPRP | -0.0644 |
| RRIRVRPPRLPRPRPRPNRPPRP | -0.262 |
| RRIRYRPPRLPRPRPRPAFEPRP | -0.0224 |
| RRIRQRPPRLPRPRPRPEWSPRP | 0.0925 |
| RRIRDRPPRLPRPRPRPKFYPRP | 0.0101 |
| RRIRNRPPRLPRPRPRPLQHPRP | 0.198 |
| RRIRPRPPRLPRPRPRPCIMPRP | -1.1 |
| RRIRQRPPRLPRPRPRPTPMPRP | 2.6 |
| RRIRQRPPRLPRPRPRPMPWPRP | 0.117 |
| RRIRLRPPRLPRPRPRPKKNPRP | 0.144 |
| RRIRMRPPRLPRPRPRPNAMPRP | 0.16 |

| Sequence | shrunken log2 fold change |
| --- | --- |
| RRIRMRPPRLPRPRPRPQPQPRP | 0.717 |
| RRIRKRPPRLPRPRPRPLWKPRP | -0.206 |
| RRIRSRPPRLPRPRPRPDFIPRP | 0.00191 |
| RRIRDRPPRLPRPRPRPSCYPRP | -0.302 |
| RRIRDRPPRLPRPRPRPDWEPRP | 0.0165 |
| RRIRMRPPRLPRPRPRPKFHPRP | -0.174 |
| RRIRNRPPRLPRPRPRPQAKPRP | -0.00911 |
| RRIRWRPPRLPRPRPRPHSDPRP | 0.0062 |
| RRIRMRPPRLPRPRPRPVGSPRP | 0.99 |
| RRIRWRPPRLPRPRPRPCNCPRP | -0.289 |
| RRIRTRPPRLPRPRPRPHNGPRP | -0.0789 |
| RRIRWRPPRLPRPRPRPSELPRP | 0.0129 |
| RRIRLRPPRLPRPRPRPLHRPRP | -0.226 |
| RRIRFRPPRLPRPRPRPPTCPRP | 0.186 |
| RRIRPRPPRLPRPRPRPDSFPRP | -0.0889 |
| RRIRKRPPRLPRPRPRPIMAPRP | 0.0791 |
| RRIRIRPPRLPRPRPRPFSCPRP | -0.534 |
| RRIRERPPRLPRPRPRPGSSPRP | -0.331 |
| RRIRMRPPRLPRPRPRPYSQPRP | -0.0394 |
| RRIRTRPPRLPRPRPRPINFPRP | -0.0833 |
| RRIRTRPPRLPRPRPRPIPMPRP | -0.38 |
| RRIRHRPPRLPRPRPRPYWVPRP | -0.26 |

| Sequence | shrunken log2 fold change |
| --- | --- |
| RRIRNRPPRLPRPRPRPFKAPRP | 0.0407 |
| RRIRTRPPRLPRPRPRPSLFPRP | -0.248 |
| RRIRARPPRLPRPRPRPGMQPRP | 0.094 |
| RRIRVRPPRLPRPRPRPMHCPRP | -0.00923 |
| RRIRRRPPRLPRPRPRPIPWPRP | 0.312 |
| RRIRKRPPRLPRPRPRPPCQPRP | 0.47 |
| RRIRDRPPRLPRPRPRPYFSPRP | -0.345 |
| RRIRCRPPRLPRPRPRPLGIPRP | -0.149 |
| RRIRGRPPRLPRPRPRPNWLPRP | 0.341 |
| RRIRLRPPRLPRPRPRPVCTPRP | -0.0517 |
| RRIRPRPPRLPRPRPRPILAPRP | 0.273 |
| RRIRKRPPRLPRPRPRPNVLPRP | -0.112 |
| RRIRLRPPRLPRPRPRPLQSPRP | 0.0468 |
| RRIRPRPPRLPRPRPRPMKIPRP | 0.0483 |
| RRIRSRPPRLPRPRPRPSHEPRP | 0.0867 |
| RRIRPRPPRLPRPRPRPICRPRP | -0.276 |
| RRIRERPPRLPRPRPRPDVVPRP | 0.015 |
| RRIRDRPPRLPRPRPRPNVMPRP | -0.323 |
| RRIRMRPPRLPRPRPRPRRLPRP | 0.817 |
| RRIRKRPPRLPRPRPRPHDQPRP | 0.0273 |
| RRIRWRPPRLPRPRPRPWLMPRP | 0.116 |
| RRIRTRPPRLPRPRPRPSHYPRP | -1.32 |

| Sequence | shrunken log2 fold change |
| --- | --- |
| RRIRRRPPRLPRPRPRPNFNPRP | -0.0741 |
| RRIRIRPPRLPRPRPRPVFHPRP | -0.936 |
| RRIRIRPPRLPRPRPRPYYVPRP | -0.481 |
| RRIRYRPPRLPRPRPRPCKIPRP | -0.116 |
| RRIRWRPPRLPRPRPRPDGLPRP | 0.393 |
| RRIRNRPPRLPRPRPRPIIYPRP | -1.06 |
| RRIRGRPPRLPRPRPRPVKRPRP | 0.248 |
| RRIRDRPPRLPRPRPRPQGRPRP | -0.0642 |
| RRIRVRPPRLPRPRPRPNNPPRP | -0.352 |
| RRIRHRPPRLPRPRPRPTNKPRP | -0.557 |
| RRIRLRPPRLPRPRPRPWPNPRP | -0.0032 |
| RRIRHRPPRLPRPRPRPPGMPRP | 0.0769 |
| RRIRRRPPRLPRPRPRPTCYPRP | -0.242 |
| RRIRWRPPRLPRPRPRPRSKPRP | 0.118 |
| RRIRSRPPRLPRPRPRPGFSPRP | -0.0153 |
| RRIRTRPPRLPRPRPRPHDDPRP | -0.0991 |
| RRIRPRPPRLPRPRPRPDNHPRP | -0.521 |
| RRIRSRPPRLPRPRPRPKPLPRP | -0.107 |
| RRIRARPPRLPRPRPRPLFLPRP | 0.0297 |
| RRIRIRPPRLPRPRPRPCKYPRP | -1.03 |
| RRIRNRPPRLPRPRPRPMGSPRP | -0.01 |
